These results are taken from patent US20220073907A1, “TAGLESS ENCODED CHEMICAL LIBRARY” (NANNA THERAPEUTICS LIMITED, priority 2016, published 2022).

Data set [1] relates to cleavable oligonucleotide. As to the kind of experiment: Enzymatic release of BHQ-1 quencher from FITC-labelled cleavable oligonucleotide, denaturing gel. The data set is classed as biochemical. To be noted: 10-fold serial dilutions of stock enzyme from 10^−2 to 10^−5 in 10 mM Tris-HCl pH 7.5, 1 mM EDTA; 150 nM cleavable oligonucleotide. The text has this:
Referring now to FIG. 4, to show cleavage of the linker and release of the pharmacore oligonucleotides were made which incorporated a fluorophore (FITC, shown as F in FIG. 4) 5′ to the cleavable linker within the sequence of the cleavable oligonucleotide. A quencher molecule, BHQ-1, was then attached to the cleavable linker. This can be released by cleavage in the same manner as any chemical structure used in library generation. Light up of the oligonucleotide is seen when the quencher is removed from the cleavable linker.
Three different enzymes have been identified which cleave their associated linkers in a scarless manner (RNase A, RNase T1 A and RNase 1 A; labelled as enzymes A, B and C respectively in FIG. 4). All 3 were tested with their compatriot linkers. In each case 10 μl reactions were set up; 10 mM Tris-HCl, 1 mM EDTA, 150 nM cleavable oligonucleotide 0.1 μl of stock enzyme (RNase A=10 mg/ml, RNase T1=10 mg/ml RNase 1=1.5 mg/ml) then to 10 μl with nuclease free water. Samples were incubated for 15 minutes at 37° C. and then 10 μL denaturing loading dye added (95% formamide, 0.1% xylene cyanole, 0.1% Bromophenol Blue, 20 mM Tris-HCl pH 7.5). Samples were boiled for 2 minutes at 95° C. and then rapidly cooled to 4° C. at 4° C./s. These samples were then loaded onto a denaturing TBE-gel (12.5% polyacrylamide, 7M Urea). The gel was run at 150V for 75 minutes and the imaged using a Syngene Ingenius3 system exciting the FITC. Release of the quencher means the fluorophore can be seen and imaged as ‘light up’. This is seen as appearance of yellow DNA band in the presence of enzyme. By staining with SyBr gold (Thermo) DNA can be seen and this is again quenched when quencher is present but the size shift corresponding to the change in mass can be seen as well as increased signal (grey scale image below fluorophore, FIG. 4). In both cases we can see release only occurs in the presence of the enzymes and is rapid (<15 minutes). […]

Data set [2] deals with cleavable oligonucleotide. The data set is described as follows: Enzymatic release of payload from cleavable linker in 100 μm aqueous droplets. Type of data set: biochemical. Particulars: 10 μl stock RNase A (10 mg/ml) per 1 ml aqueous phase, 37° C. for 15 minutes, 100 μm droplets. How it is done:
We also confirmed that the enzymes function in the droplet environment (see FIG. 5). Results are shown for RNase A. 1 ml of aqueous phase was set up using 10 mM Tris-HCl, 1 mM EDTA, 150 nM cleavable oligonucleotide 10 μl of stock RNase A (10 mg/ml) then to 1 ml with nuclease free water. Droplets of […] mean diameter were made using a 100 μm etch depth chip with the aqueous phase as described above and the oil phase comprising of PSF-2 cST oil (Clearco Products Inc.) with 2% w/v Gransurf G67 (Grant Industries Inc.) Droplets were incubated with and without enzyme at 37° C. for 15 minutes and them imaged under a Floid fluorescence microscope illuminating at 482/18 nm and emission filters of 532/59 nm.

Data set [3] relates to RNA guides. As to the kind of experiment: RNaseA cleavage of RNA guides in growth media. Type of data set: biochemical.
Data set [4] concerns Jurkat cells. The data set is described as follows: Effect of RNaseA in the cell mixture on cellular growth. To be noted: 0.1 μg/ml in the cell mixture. Type of data set: cell-based. From the text: DNA guides assembly of monomers—were synthesised using conventional chemistry the RNA tags were synthesised in advance by IDT. The last 3 nucleotides contain phosphorothioate linkages to prevent cleavage by exonucleases. Individual reagents are then tagged with a guide to a specific RNA specific to a unique sequence incorporated into the guide oligonucleotide (100 unique monomers can be assembled, assuming up to 4 guide sequences into over 100,000,000 unique compounds). […] 1) Beads are packed into a column (each bead is clonal with a unique DNA sequence to guide assembly but μM concentrations of this clonal guide on each bead) and at 20 μM 200 million can be present per ml of bead volume. 2) A pool of monomers and appropriate reagents are then washed onto the column and reactions allowed to proceed, the column can be washed and new reaction chemistry added as needed (note fresh monomers can also be added). 3) Chemical synthesis varies with monomers used (see example 2, section 4). 4) Finally the beads are washed with 10 column volumes of TE with 100 mM NaCl and then 2 column volumes of appropriate media for growth of cells in the phenotypic screen e.g. RPMI. 5) Beads are then collected in the growth media and ready for encapsulation with target cells. […]

For “RNase 1: enzyme which cleaves its associated linker in a scarless manner; stock 1.5 mg/ml”, the “dilution of the enzyme at which activity is seen” value (shortened to “dilution of the enzyme”) in data set [1] was 10^−3.

B1: RNase A: enzyme which cleaves its associated RNA linker in a scarless manner; stock 10 mg/ml (protein, UniProt P61823 27-150, looked up)
Ribonuclease pancreatic: KETAAAKFERQHMDSSTSAASSSNYCNQMMKSRNLTKDRCKPVNTFVHESLADVQAVCSQKNVACKNGQTNCYQSYSTMSITDCRETGSSKYPNCAYKTTQANKHIIVACEGNPYVPVHFDASV
For the molecule B1, the “light up (quencher release) in droplets” value in data set [2] is “light up occurs in droplets in the presence of enzyme”. The “duration of enzyme activity in growth media” value in data set [3] (0.1 μg/ml, growth media tested) is reported as “at least 48 h”. Further, in data set [3] (in RPMI, lysogeny broth, tryptic soy broth and DMEM), the “time for cleavage of RNA guides” value fell in the range of 15 to 20 min. Further, in data set [4], the “effect on cellular growth” value is recorded as “doesn't affect cellular growth”. The “dilution of the enzyme” value in data set [1] was 10^−4.

B2: RNase T1: enzyme which cleaves its associated linker in a scarless manner; stock 10 mg/ml (protein, UniProt P00651 27-130, looked up)
Guanyl-specific ribonuclease …: ACDYTCGSNCYSSSDVSTAQAAGYQLHEDGETVGSNSYPHKYNNYEGFDFSVSSPYYEWPILSSGDVYSGGSPGADRVVFNENNQLAGVITHTGASGNNFVECT
As to B2, the “dilution of the enzyme” value in data set [1] is 10^−3.
